Tested on: Bacillus subtilis
Assay: cleaved RNA product abundance (RNA/gDNA barcode ratio) relative to median wild-type variant (ratio to wild type); higher = more accumulation of the downstream cleavage product
Conditions: cleavage site: cggR-gapA (positions -7 to +36 mutated)
Summary of the method: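 Truncated aprE or tetM reporter mRNAs with barcoded RNase Y cleavage-site windows, mutagenized from oligos at a 9% error rate, sat in the B. subtilis chromosome. Cells grew in LB at 37°C from OD600 0.0003 to 0.3. Gel-selected cleaved RNA was reverse transcribed and its barcodes sequenced with those from genomic DNA, collapsing by UMI. Cleaved product abundance equals the RNA:gDNA barcode ratio per construct over the median construct with the unmutated site.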

[1] = experiment (reporter, strain, medium): exp 2b: truncated aprE reporter, strain BJT200
[2] = experiment (reporter, strain, medium): exp 4a: truncated aprE reporter, strain BJT201 with 2% xylose (RNase J1 expressed)
[3] = experiment (reporter, strain, medium): exp 6: tetM reporter, strain 168

| Sequence | cleaved RNA product abundance [1] | cleaved RNA product abundance [2] | cleaved RNA product abundance [3] |
| --- | --- | --- | --- |
| ACAGACGAAGGAGCCGCAAAGAAGTTATTAAGGGAATAATAATCCCTCAATATAAATATCTCTCACTTATTTAAA | 0.811 | 0.934 |  |
| ACAGACGAAGGAGCCGCAAAGAAGTTATTAAGGGAATGAATAATCCCTCAATATAAATATCTCTCACTTATTTAA |  | 0.604 |  |
| ACAGACGAAGGAGCCGCAAAGAAGTTATTAAGGGACAAATAATCCCTCAATATAAATATCTCTCACTTATTTAAA |  | 0.84 |  |
| ACAGACGAAGGAGCCGCAAAGAAGTTATTAAGGGACGAATAAACCCTCAATATAAATATCTCTCACTTATTTAAA | 0.197 | 0.237 |  |
| ACAGACGAAGGAGCCGCAAAGAAGTTATTAAGGGACGAATAACCCCTCAATATAAATATCTCTCACTTATTTAAA |  | 0.19 |  |
| ACAGACGAAGGAGCCGCAAAGAAGTTATTAAGGGACGAATAATACCTCAATATAAATATCTCTCACTTATTTAAA |  | 0.12 |  |
| ACAGACGAAGGAGCCGCAAAGAAGTTATTAAGGGACGAATAATCAATCAATATAAATATCTCTCACTTATTTAAA |  | 0.132 |  |
| ACAGACGAAGGAGCCGCAAAGAAGTTATTAAGGGACGAATAATCACTCAATATAAATATCTCTCACTTATTTAAA |  | 0.0856 |  |
| ACAGACGAAGGAGCCGCAAAGAAGTTATTAAGGGACGAATAATCCATCAATATAAATATCTCTCACTTATTTAAA |  | 0.0728 |  |
| ACAGACGAAGGAGCCGCAAAGAAGTTATTAAGGGACGAATAATCCCACAATATAAATATCTCTCACTTATTTAAA | 0.13 |  |  |
| ACAGACGAAGGAGCCGCAAAGAAGTTATTAAGGGACGAATAATCCCGCAATATAAATATCTCTCACTTATTTAAA |  | 0.132 |  |
| ACAGACGAAGGAGCCGCAAAGAAGTTATTAAGGGACGAATAATCCCTAAATATAAATATCTCTCACTTATTTAAA |  | 0.287 |  |
| ACAGACGAAGGAGCCGCAAAGAAGTTATTAAGGGACGAATAATCCCTCAAAATAAATATCTCTCACTTATTTAAA |  | 0.346 |  |
| ACAGACGAAGGAGCCGCAAAGAAGTTATTAAGGGACGAATAATCCCTCAATATAAATAGCTCTCACTTATTTAAA |  | 0.3 |  |
| ACAGACGAAGGAGCCGCAAAGAAGTTATTAAGGGACGAATAATCCCTCAATATAAATATCTCTCACTTATTTAAA | 0.691 | 0.697 | 0.805 |
| ACAGACGAAGGAGCCGCAAAGAAGTTATTAAGGGACGAATAATCCCTCAATATAAATCTCTCTCACTTATTTAAA |  | 0.53 |  |
| ACAGACGAAGGAGCCGCAAAGAAGTTATTAAGGGACGAATAATCCCTCAATATAAATTTCTCTCACTTATTTAAA |  | 0.559 |  |
| ACAGACGAAGGAGCCGCAAAGAAGTTATTAAGGGACGAATAATCCCTCAATATATATATCTCTCACTTATTTAAA | 0.629 | 0.771 |  |
| ACAGACGAAGGAGCCGCAAAGAAGTTATTAAGGGACGAATAATCCCTCAATCTAAATATCTCTCACTTATTTAAA |  | 0.0944 |  |
| ACAGACGAAGGAGCCGCAAAGAAGTTATTAAGGGACGAATAATCCCTCAGTATAAATATCTCTCACTTATTTAAA |  | 0.415 |  |

| Sequence | cleaved RNA product abundance [1] | cleaved RNA product abundance [2] | cleaved RNA product abundance [3] |
| --- | --- | --- | --- |
| ACAGACGAAGGAGCCGCAAAGAAGTTATTAAGGGACGAATAATCCCTCATTATAAATATCTCTCACTTATTTAAA | 0.215 | 0.326 |  |
| ACAGACGAAGGAGCCGCAAAGAAGTTATTAAGGGACGAATAATCCCTCCATATAAATATCTCTCACTTATTTAAA |  | 0.255 |  |
| ACAGACGAAGGAGCCGCAAAGAAGTTATTAAGGGACGAATAATCCGTCAATATAAATATCTCTCACTTATTTAAA | 0.0596 | 0.072 |  |
| ACAGACGAAGGAGCCGCAAAGAAGTTATTAAGGGACGAATAATCCTTCAATATAAATATCTCTCACTTATTTAAA | 0.146 | 0.217 |  |
| ACAGACGAAGGAGCCGCAAAGAAGTTATTAAGGGACGAATAATCGCTCAATATAAATATCTCTCACTTATTTAAA |  | 0.0681 |  |
| ACAGACGAAGGAGCCGCAAAGAAGTTATTAAGGGACGAATAATCTCTCAATATAAATATCTCTCACTTATTTAAA | 0.139 |  |  |
| ACAGACGAAGGAGCCGCAAAGAAGTTATTAAGGGACGAATAATTCCTCAATATAAATATCTCTCACTTATTTAAA | 0.126 | 0.192 |  |
| ACAGACGAAGGAGCCGCAAAGAAGTTATTAAGGGACGAATAGTCCCTCAATATAAATATCTCTCACTTATTTAAA | 0.905 |  |  |
| ACAGACGAAGGAGCCGCAAAGAAGTTATTAAGGGACGAATATTCCCTCAATATAAATATCTCTCACTTATTTAAA |  | 0.525 |  |
| ACAGACGAAGGAGCCGCAAAGAAGTTATTAAGGGACGATTAATCCCTCAATATAAATATCTCTCACTTATTTAAA |  | 0.349 |  |
| ACAGACGAAGGAGCCGCAAAGAAGTTATTAAGGGACGTATAATCCCTCAATATAAATATCTCTCACTTATTTAAA |  | 0.705 |  |
| ACAGACGAAGGAGCCGCAAAGAAGTTATTAAGGGACTAATAATCCCTCAATATAAATATCTCTCACTTATTTAAA | 1.03 | 1.01 |  |
| ACAGACGAAGGAGCCGCAAAGAAGTTATTAAGGGAGAAATAATCCCTCAATATAAATATCTCTCACTTATTTAAA |  | 0.795 |  |
| ACAGACGAAGGAGCCGCAAAGAAGTTATTAAGGGAGAATAATCCCTCAATATAAATATCTCTCACTTATTTAAAG |  | 0.471 |  |
| ACAGACGAAGGAGCCGCAAAGAAGTTATTAAGGGAGCAATAATCCCTCAATATAAATATCTCTCACTTATTTAAA |  | 0.631 |  |
| ACAGACGAAGGAGCCGCAAAGAAGTTATTAAGGGAGGAATAAACCCTCAATATAAATATCTCTCACTTATTTAAA |  | 0.382 |  |
| ACAGACGAAGGAGCCGCAAAGAAGTTATTAAGGGAGGAATAACCCCTCAATATAAATATCTCTCACTTATTTAAA |  | 0.213 |  |
| ACAGACGAAGGAGCCGCAAAGAAGTTATTAAGGGAGGAATAATCCATCAATATAAATATCTCTCACTTATTTAAA |  | 0.209 |  |
| ACAGACGAAGGAGCCGCAAAGAAGTTATTAAGGGAGGAATAATCCCTAAATATAAATATCTCTCACTTATTTAAA | 0.404 | 0.324 |  |
| ACAGACGAAGGAGCCGCAAAGAAGTTATTAAGGGAGGAATAATCCCTCAAAATAAATATCTCTCACTTATTTAAA |  | 0.284 |  |

| Sequence | cleaved RNA product abundance [1] | cleaved RNA product abundance [2] | cleaved RNA product abundance [3] |
| --- | --- | --- | --- |
| ACAGACGAAGGAGCCGCAAAGAAGTTATTAAGGGAGGAATAATCCCTCAAGATAAATATCTCTCACTTATTTAAA |  | 0.152 |  |
| ACAGACGAAGGAGCCGCAAAGAAGTTATTAAGGGAGGAATAATCCCTCAATATAAATATCTCTCACTTATTTAAA | 0.499 | 0.603 | 0.591 |
| ACAGACGAAGGAGCCGCAAAGAAGTTATTAAGGGAGGAATAATCCCTGAATATAAATATCTCTCACTTATTTAAA |  | 0.635 |  |
| ACAGACGAAGGAGCCGCAAAGAAGTTATTAAGGGAGGAATAATCCTTCAATATAAATATCTCTCACTTATTTAAA |  | 0.283 |  |
| ACAGACGAAGGAGCCGCAAAGAAGTTATTAAGGGAGGAATAATCTCTCAATATAAATATCTCTCACTTATTTAAA |  | 0.198 |  |
| ACAGACGAAGGAGCCGCAAAGAAGTTATTAAGGGAGGAATAATTCCTCAATATAAATATCTCTCACTTATTTAAA |  | 0.0856 |  |
| ACAGACGAAGGAGCCGCAAAGAAGTTATTAAGGGATAAAAAATCCATCAATATAAATATCTCTCACTTATTTAAA | 0.123 |  |  |
| ACAGACGAAGGAGCCGCAAAGAAGTTATTAAGGGATAAAAAATCCCTCAATATAAATATCTCTCACTTATTTAAA |  | 0.625 |  |
| ACAGACGAAGGAGCCGCAAAGAAGTTATTAAGGGATAAACAATCCCTCAATATAAATATCTCTCACTTATTTAAA | 0.787 | 0.798 |  |
| ACAGACGAAGGAGCCGCAAAGAAGTTATTAAGGGATAAAGAATCCCTCAATATAAATATCTCTCACTTATTTAAA |  | 0.629 |  |
| ACAGACGAAGGAGCCGCAAAGAAGTTATTAAGGGATAAATAAACCCTCAATATAAATATCTCTCACTTATTTAAA |  | 0.445 |  |
| ACAGACGAAGGAGCCGCAAAGAAGTTATTAAGGGATAAATAACCCCTCAATATAAATATCTCTCACTTATTTAAA | 0.423 | 0.499 |  |
| ACAGACGAAGGAGCCGCAAAGAAGTTATTAAGGGATAAATAAGCCCTCAATATAAATATCTCTCACTTATTTAAA |  | 0.821 |  |
| ACAGACGAAGGAGCCGCAAAGAAGTTATTAAGGGATAAATAATACCTCAATATAAATATCTCTCACTTATTTAAA | 0.117 | 0.0789 |  |
| ACAGACGAAGGAGCCGCAAAGAAGTTATTAAGGGATAAATAATCACTCAATATAAATATCTCTCACTTATTTAAA | 0.0853 | 0.104 |  |
| ACAGACGAAGGAGCCGCAAAGAAGTTATTAAGGGATAAATAATCCATCAATATAAATATCTCTCACTTATTTAAA |  | 0.195 |  |
| ACAGACGAAGGAGCCGCAAAGAAGTTATTAAGGGATAAATAATCCCACAATATAAATATCTCTCACTTATTTAAA | 0.253 | 0.356 |  |
| ACAGACGAAGGAGCCGCAAAGAAGTTATTAAGGGATAAATAATCCCCCAATATAAATATCTCTCACTTATTTAAA |  | 0.22 |  |
| ACAGACGAAGGAGCCGCAAAGAAGTTATTAAGGGATAAATAATCCCTAAATATAAATATCTCTCACTTATTTAAA | 0.597 | 0.734 |  |
| ACAGACGAAGGAGCCGCAAAGAAGTTATTAAGGGATAAATAATCCCTCAAAATAAATATCTCTCACTTATTTAAA | 0.293 | 0.241 |  |
